# From US20130266576A1
# pKd: −log10 of the molar value.
# Biological target: von Willebrand factor (vWF) (UniProt P04275)
# Experiment: solid-phase binding assay, vWF coated on wells, FVIII 0.05-6.4 nM, no antibody, detection with biotinylated 1F5; one-site model
# Chain of B-domain deleted factor VIII (FVIII) (P00451 20-759, stated change not applied): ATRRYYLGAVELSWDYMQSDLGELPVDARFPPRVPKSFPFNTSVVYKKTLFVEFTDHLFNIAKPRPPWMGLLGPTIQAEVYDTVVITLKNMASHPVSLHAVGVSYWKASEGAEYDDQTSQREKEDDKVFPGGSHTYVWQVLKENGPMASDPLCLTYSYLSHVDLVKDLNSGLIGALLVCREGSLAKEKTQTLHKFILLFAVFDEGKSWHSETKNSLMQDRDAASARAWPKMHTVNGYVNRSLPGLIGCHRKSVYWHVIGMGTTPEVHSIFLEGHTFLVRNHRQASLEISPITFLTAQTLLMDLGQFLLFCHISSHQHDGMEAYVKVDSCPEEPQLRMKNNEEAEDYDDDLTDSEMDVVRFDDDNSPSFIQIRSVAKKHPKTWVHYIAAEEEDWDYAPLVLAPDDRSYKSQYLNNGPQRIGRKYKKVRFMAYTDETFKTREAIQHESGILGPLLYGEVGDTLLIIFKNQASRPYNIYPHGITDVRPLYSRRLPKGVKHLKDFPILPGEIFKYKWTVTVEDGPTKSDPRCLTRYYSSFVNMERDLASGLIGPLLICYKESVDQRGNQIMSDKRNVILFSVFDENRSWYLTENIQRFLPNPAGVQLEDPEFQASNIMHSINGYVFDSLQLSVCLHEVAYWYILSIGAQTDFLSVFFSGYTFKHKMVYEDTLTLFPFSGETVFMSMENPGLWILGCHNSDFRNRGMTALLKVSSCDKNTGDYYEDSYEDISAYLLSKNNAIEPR
# Chain of B-domain deleted factor VIII (FVIII) (P00451 1668-2351, stated change not applied): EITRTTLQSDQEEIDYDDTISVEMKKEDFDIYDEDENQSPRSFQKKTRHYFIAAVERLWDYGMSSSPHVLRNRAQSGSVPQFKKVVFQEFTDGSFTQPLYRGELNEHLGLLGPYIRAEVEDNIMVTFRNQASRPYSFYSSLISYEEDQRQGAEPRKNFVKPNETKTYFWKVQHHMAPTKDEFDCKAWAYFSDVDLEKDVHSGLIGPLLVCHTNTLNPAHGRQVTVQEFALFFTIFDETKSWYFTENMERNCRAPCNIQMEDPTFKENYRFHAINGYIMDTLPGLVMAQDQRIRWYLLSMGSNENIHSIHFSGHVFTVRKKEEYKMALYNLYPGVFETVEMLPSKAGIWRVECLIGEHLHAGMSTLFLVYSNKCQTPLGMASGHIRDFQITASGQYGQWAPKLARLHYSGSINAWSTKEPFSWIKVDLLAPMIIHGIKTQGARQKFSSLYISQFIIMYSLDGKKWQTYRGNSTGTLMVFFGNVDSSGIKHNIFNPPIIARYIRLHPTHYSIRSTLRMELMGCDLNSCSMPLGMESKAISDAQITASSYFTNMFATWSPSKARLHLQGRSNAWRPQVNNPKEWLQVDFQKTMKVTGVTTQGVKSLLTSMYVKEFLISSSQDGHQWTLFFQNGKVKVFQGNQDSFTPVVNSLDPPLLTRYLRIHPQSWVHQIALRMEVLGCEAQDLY
substance,measurement,value
B-domain deleted factor VIII (FVIII) (from UniProt P00451 20-759; P00451 1668-2351),pKd,9.54
